# Like-named read-outs stand apart in the source and are kept apart here. Ends that are not written are not given here.
# T1: TROP2 (human, UniProt P09758 27-274, limits assumed, biotinylated (site not stated))
# T1 construct: also called TROP2-biotin; tumor-associated calcium signal transducer 2
# T1 sequence (looked up): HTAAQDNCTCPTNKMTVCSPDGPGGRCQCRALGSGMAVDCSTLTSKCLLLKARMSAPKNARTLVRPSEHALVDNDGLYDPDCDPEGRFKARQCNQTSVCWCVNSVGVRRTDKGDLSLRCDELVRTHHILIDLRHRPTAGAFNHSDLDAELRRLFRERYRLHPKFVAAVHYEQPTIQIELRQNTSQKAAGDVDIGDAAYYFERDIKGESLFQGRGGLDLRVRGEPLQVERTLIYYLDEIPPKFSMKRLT
# T2: human TROP2-biotin (human, UniProt P09758 27-274, limits assumed, biotinylated (site not stated))
# T2 construct: also called hTROP2-Biotin; Biotinylated TROP2
# T2 sequence (looked up): T1 sequence (looked up)
# T3: Cyno CD3 (Antigen was biotinylated for capture on the plate (per card); site of biotin and any vendor tag not stated in the passages seen.)
# T3 construct: also called cynomolgus CD3
# T3 chain: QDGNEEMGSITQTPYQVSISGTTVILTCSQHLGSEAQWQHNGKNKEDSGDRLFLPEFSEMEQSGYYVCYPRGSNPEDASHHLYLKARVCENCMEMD
# B1: Peptide-2 (peptide)
# peptide: GSQCLGPEWEVCPY
# modifications: cysteine pairing not given here; also: biotinylated when captured in ELISA
# notes: also called 1419
# B2: Peptide-4 (peptide)
# peptide: DWCWYSPDNDGLCD
# modifications: cysteine pairing not given here; also: biotinylated when captured in binding ELISA
# notes: also called 1446
# B3: Peptide-5 (peptide)
# peptide: SECLVDLQSDPCYW
# modifications: cysteine pairing not given here; also: biotinylated when captured in binding ELISA
# notes: also called 1454
# B4: TCE-30 (bispecific antibody)
# light: DIQLTQSPSSLSASVGDRVSITCKASQDVSIAVAWYQQKPGKAPKLLIYSASYRYTGVPDRFSGSGSGTDFTLTISSLQPEDFAVYYCQQHYITPLTFGAGTKVEIKRTVAAPSVFIFPPSDEQLKSGTASVVCLLNNFYPREAKVQWKVDNALQSGNSQESVTEQDSKDSTYSLSSTLTLSKADYEKHKVYACEVTHQGLSSPVTKSFNRGEC
# heavy: not shown
# notes: anti-CD3 scFv H101A; anti-TROP2 Fab F108A
# B5: TCE-31 (bispecific antibody)
# light: B4 light
# heavy: not shown
# notes: anti-CD3 scFv F104A; anti-TROP2 Fab F108A
# B6: TCE-32 (bispecific antibody)
# light: B4 light
# heavy: not shown
# notes: anti-CD3 scFv F240A; anti-TROP2 Fab F108A
# B7: TCE-34 (bispecific antibody)
# light: B4 light
# heavy: not shown
# notes: anti-CD3 scFv N30Q, I109V, G172A, V231A; anti-TROP2 Fab F108A
# B8: TCE-29 (bispecific antibody)
# light: B4 light
# heavy: not shown
# notes: anti-CD3 scFv wt; anti-TROP2 Fab F108A
# B9: TCE-30 (anti-CD3 scFv H101A; anti-TROP2 (F108A) HC) (bispecific antibody)
# light: B4 light
# heavy: not shown
# notes: scFv-Fab; the entry already carries the mutations
# B10: TCE-31 (anti-CD3 scFv F104A; anti-TROP2 (F108A) HC) (bispecific antibody)
# light: B4 light
# heavy: not shown
# notes: as for B9
# B11: TCE-32 (anti-CD3 scFv F240A; anti-TROP2 (F108A) HC) (bispecific antibody)
# light: B4 light
# heavy: not shown
# notes: as for B9
# B12: TCE-34 (anti-CD3 scFv, several mutations; anti-TROP2 (F108A) HC) (bispecific antibody)
# light: B4 light
# heavy: not shown
# notes: as for B9
# B13: TCE-36 (bispecific antibody)
# light chain (anti-TROP2 LC wt): B4 light
# heavy chain (anti-CD3 scFv H101A fused to anti-TROP2 D109A Fab HC): not shown
# notes: not in the list MOLECULES; also called TCE-36 (anti-CD3 scFv H101A; anti-TROP2 (D109A) HC)
# B14: TCE-37 (bispecific antibody)
# light: B4 light
# heavy: not shown
# notes: anti-CD3 scFv F104A; anti-TROP2 Fab D109A
# B15: TCE-29 (anti-CD3 scFv wt; anti-TROP2 (F108A) HC) (bispecific antibody)
# light: B4 light
# heavy: not shown
# notes: scFv-Fab; the entry already carries the mutation
# B16: TCE-35 (anti-CD3 scFv wt; anti-TROP2 (D109A) HC) (bispecific antibody)
# light: B4 light
# heavy: not shown
# notes: as for B15
# B17: TCE-38 (bispecific antibody)
# light chain (anti-TROP2 LC wt): B4 light
# heavy chain (anti-CD3 scFv F240A fused to anti-TROP2 D109A Fab HC): not shown
# notes: not in the list MOLECULES; also called anti-TROP2 (D109A) HC)
# B18: Peptide-1 (peptide)
# peptide: QGCGTIADPEPHCW
# modifications: cysteine pairing not given here; also: biotinylated when captured in ELISA
# notes: also called 1363
# B19: Peptide-12 (peptide)
# peptide: YLCGPDADETLACY
# modifications: cysteine pairing not given here; also: biotinylated when captured in ELISA
# What was measured:
# TCE-19 = biological target: T4, TCE-19; assay: competition ELISA, peptide titrated vs TCE binding to captured CD3
# T4 construct: anti-CD3 scFv W233A; anti-TROP2 Fab wt; also called 3091
# TCE-15 = biological target: T5, TCE-15; assay: as above
# T5 construct: anti-CD3 scFv W112A; anti-TROP2 Fab wt; also called 3087
# TCE-1 = biological target: T6, TCE-1; assay: competition ELISA: peptide titrated and pre-incubated with a constant concentration of TCE-1; TCE-1 bound to plate-captured biotinylated CD3 is detected (blocked ligand: CD3)
# T6 construct: anti-CD3 scFv wt fused to anti-TROP2 Fab HC wt
# TCE-4 = biological target: T7, TCE-4; assay: competition ELISA, peptide titrated vs TCE binding to captured CD3
# T7 construct: anti-CD3 scFv H101A; anti-TROP2 Fab wt; also called 3076
# TCE-6 = biological target: T8, TCE-6; assay: as above
# T8 construct: anti-CD3 scFv N103A; anti-TROP2 Fab wt; also called 3078
# TCE-3 = biological target: T9, TCE-3; assay: as above
# T9 construct: anti-CD3 scFv R100A; anti-TROP2 Fab wt; also called 3075
# TROP2 [1] = biological target: T1, TROP2; assay: ELISA, biotinylated TROP2 captured on neutravidin coated plates, HRP secondary antibody, OD 450 nm
# TROP2 [2] = biological target: T1, TROP2; assay: as above; remark: listed apart in the source
# CD3ε [3] = biological target: T10, CD3ε (human, UniProt P07766 23-126, limits assumed, biotinylated (site not stated)); assay: ELISA, biotinylated CD3 captured on neutravidin coated plates, HRP secondary antibody, OD 450 nm
# T10 construct: also called CD3-biotin; CD3E
# TROP2 [4] = biological target: T1, TROP2; assay: ELISA, biotinylated TROP2 captured on neutravidin coated plates, HRP secondary antibody, OD 450 nm; remark: listed apart in the source
# CD3ε [5] = biological target: T10, CD3ε; assay: ELISA, biotinylated CD3 captured on neutravidin coated plates, HRP secondary antibody, OD 450 nm; remark: listed apart in the source
# TROP2 [6] = biological target: T1, TROP2; assay: ELISA, biotinylated TROP2 captured on neutravidin coated plates, HRP secondary antibody, OD 450 nm; remark: listed apart in the source
# human TROP2-biotin [7] = biological target: T2, human TROP2-biotin; assay: ELISA, biotinylated TROP2 captured on neutravidin plate, TCE titrated
# Cyno CD3 = biological target: T3, Cyno CD3; assay: Cyno CD3 binding ELISA, TCE titrated
# human CD3ε-biotin [8] = biological target: T11, human CD3ε-biotin (human, UniProt P07766 23-126, limits assumed, biotinylated (site not stated)); assay: Human CD3 binding ELISA, TCE titrated
# T11 construct: also called CD3E-bio; CD3E-biotin
# human CD3ε-biotin [9] = biological target: T11, human CD3ε-biotin; assay: ELISA, biotinylated CD3ε captured on neutravidin plate, TCE titrated; table row head prints EC50 without a unit, unit taken from the axis Log [TCE nM]
# human CD3ε-biotin [10] = biological target: T11, human CD3ε-biotin; assay: ELISA, biotinylated CD3ε captured on neutravidin plate, TCE titrated
# human CD3ε-biotin [11] = biological target: T11, human CD3ε-biotin; assay: as above; remark: listed apart in the source
# human TROP2-biotin [12] = biological target: T2, human TROP2-biotin; assay: ELISA, biotinylated TROP2 captured on neutravidin plate, TCE titrated; table row head prints EC50 without a unit, unit taken from the axis Log [TCE nM]
# CD3ε [13] = biological target: T10, CD3ε; assay: ELISA, biotinylated CD3 captured on neutravidin coated plates, HRP secondary antibody, OD 450 nm; remark: listed apart in the source
# TCE-30 = biological target: B4; assay: competition ELISA, peptide titrated vs TCE binding to captured CD3
# TCE-32 = biological target: B6; assay: as above
binder,measurement,setting,value
B1,IC50,TCE-19,> 100000 nM
same,IC50,TCE-15,> 100000 nM
same,IC50 (read off the curve),TCE-1,~300 nM
B2,IC50,TCE-4,> 100000 nM
same,IC50,TCE-6,4590 nM
same,IC50,TCE-15,> 100000 nM
same,IC50 (read off the curve),TCE-1,~2000 nM
B3,IC50,TCE-4,> 100000 nM
same,IC50,TCE-3,> 100000 nM
same,IC50 (read off the curve),TCE-1,~3000 nM
B4,EC50 (read off the curve),TROP2 [1],~2 nM
B5,EC50 (read off the curve),TROP2 [2],~0.7 nM
B6,EC50 (read off the curve),CD3ε [3],~0.6 nM
same,EC50 (read off the curve),TROP2 [2],~0.7 nM
B7,EC50 (read off the curve),TROP2 [4],~2 nM
same,EC50 (read off the curve),CD3ε [5],~0.6 nM
B8,EC50 (read off the curve),TROP2 [6],~0.9 nM
same,EC50 (read off the curve),TROP2 [4],~2 nM
B9,EC50,human TROP2-biotin [7],1.28 nM
B10,EC50,Cyno CD3,0.671 nM
same,EC50,human TROP2-biotin [7],1.02 nM
same,EC50,human CD3ε-biotin [8],0.761 nM
B11,EC50,Cyno CD3,0.482 nM
same,EC50,human CD3ε-biotin [8],0.531 nM
same,EC50,human CD3ε-biotin [9],0.938 nM
B12,EC50,Cyno CD3,0.354 nM
same,EC50,human CD3ε-biotin [10],0.356 nM
same,EC50,human CD3ε-biotin [11],0.376 nM
same,EC50,human CD3ε-biotin [8],0.382 nM
B13,EC50,human TROP2-biotin [12],1.38 nM
same,EC50,human CD3ε-biotin [11],0.595 nM
B14,EC50,human TROP2-biotin [12],0.893 nM
same,EC50 (read off the curve),TROP2 [1],~0.7 nM
same,EC50 (read off the curve),CD3ε [13],~0.6 nM
B15,EC50,Cyno CD3,0.184 nM
same,EC50,human TROP2-biotin [7],1.15 nM
B16,EC50,human TROP2-biotin [7],1.07 nM
B17,EC50,human CD3ε-biotin [11],1.09 nM
B18,IC50,TCE-3,> 100000 nM
same,IC50,TCE-6,> 100000 nM
same,IC50,TCE-15,> 100000 nM
B19,IC50,TCE-30,> 100000 nM
same,IC50,TCE-32,> 100000 nM

# — US20260049140A1 (JANUX THERAPEUTICS, published 2026)
